Data published in patent US20020081638.

Tested on: free histones (mixture of H1, H3, H2B, H2A and H4; Boehringer Mannheim)

## GST-SUV39H1(82-412) H320R
  in vitro HMTase assay with free histones, activity against the unmutated product: the latter mutation (H320R) resulted in an hyperactive enzyme with approximately 20-fold increased activity
